This is an account of results in patent US20260184748A1 (University of Pennsylvania, published 2026).

Some targets named below: MC3R (UniProt P41968 1-323); TACR1 (UniProt P25103 1-407); CALCR-RAMP2 (UniProt P30988 25-474; O60895 43-175, limits assumed); SCTR (UniProt P47872 23-440); CNR1 (UniProt P21554 1-472); HRH4 (UniProt Q9H3N8 1-390); DRD5 (UniProt P21918 1-477); EDG1 (UniProt P21453 1-382).
Common to all, as to experiment: cell-based or functional assay
A further assay addresses T1, P2RY11 (UniProt Q96G91 1-374).
T1 sequence (looked up): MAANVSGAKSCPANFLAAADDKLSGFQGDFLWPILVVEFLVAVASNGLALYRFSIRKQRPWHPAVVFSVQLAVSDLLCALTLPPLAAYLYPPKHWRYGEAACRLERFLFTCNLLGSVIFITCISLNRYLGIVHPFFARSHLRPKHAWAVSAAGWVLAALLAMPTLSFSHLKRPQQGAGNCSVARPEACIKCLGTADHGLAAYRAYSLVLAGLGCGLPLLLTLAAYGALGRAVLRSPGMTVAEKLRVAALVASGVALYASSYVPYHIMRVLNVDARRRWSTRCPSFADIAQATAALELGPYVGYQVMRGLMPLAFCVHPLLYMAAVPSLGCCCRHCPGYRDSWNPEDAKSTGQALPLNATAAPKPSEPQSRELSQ

The next assay concerns the target T2, CCR6 (UniProt P51684 1-374).
T2 sequence (looked up): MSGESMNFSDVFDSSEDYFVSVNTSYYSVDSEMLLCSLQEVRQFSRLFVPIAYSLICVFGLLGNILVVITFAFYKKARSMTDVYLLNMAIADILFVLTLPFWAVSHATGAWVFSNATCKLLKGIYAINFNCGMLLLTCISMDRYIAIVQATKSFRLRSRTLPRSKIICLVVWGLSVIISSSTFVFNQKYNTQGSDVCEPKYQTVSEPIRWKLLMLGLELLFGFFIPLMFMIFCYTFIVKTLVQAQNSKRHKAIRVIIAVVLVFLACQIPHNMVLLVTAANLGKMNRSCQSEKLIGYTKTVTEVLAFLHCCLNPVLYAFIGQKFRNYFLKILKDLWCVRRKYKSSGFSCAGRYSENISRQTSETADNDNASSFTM

In the next assay the target is T3, AGTR1 (UniProt P30556 1-359).
T3 sequence (looked up): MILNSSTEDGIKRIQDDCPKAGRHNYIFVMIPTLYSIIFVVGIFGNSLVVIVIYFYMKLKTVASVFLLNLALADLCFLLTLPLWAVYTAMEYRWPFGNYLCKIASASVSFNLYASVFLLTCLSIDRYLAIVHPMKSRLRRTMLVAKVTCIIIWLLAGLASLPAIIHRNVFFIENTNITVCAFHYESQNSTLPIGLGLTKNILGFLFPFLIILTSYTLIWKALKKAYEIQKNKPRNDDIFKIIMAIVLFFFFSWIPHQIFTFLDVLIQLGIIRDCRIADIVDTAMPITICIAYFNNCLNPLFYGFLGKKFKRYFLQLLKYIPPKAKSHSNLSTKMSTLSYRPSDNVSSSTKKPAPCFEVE

A further assay addresses T4, GALR2 (UniProt O43603 1-387).
T4 sequence (looked up): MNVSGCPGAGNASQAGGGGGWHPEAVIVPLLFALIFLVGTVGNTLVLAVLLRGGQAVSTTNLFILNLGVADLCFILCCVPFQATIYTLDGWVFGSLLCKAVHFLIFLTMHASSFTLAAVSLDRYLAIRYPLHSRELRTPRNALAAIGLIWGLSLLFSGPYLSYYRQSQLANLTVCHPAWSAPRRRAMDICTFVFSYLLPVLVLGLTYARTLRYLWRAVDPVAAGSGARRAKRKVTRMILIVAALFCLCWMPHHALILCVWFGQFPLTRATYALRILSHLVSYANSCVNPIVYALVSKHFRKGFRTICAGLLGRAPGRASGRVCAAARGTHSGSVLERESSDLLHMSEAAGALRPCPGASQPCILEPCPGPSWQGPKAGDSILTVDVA

The next assay deals with T5, ADCYAP1R1 (UniProt P41586 21-468, limits assumed).
T5 sequence (looked up): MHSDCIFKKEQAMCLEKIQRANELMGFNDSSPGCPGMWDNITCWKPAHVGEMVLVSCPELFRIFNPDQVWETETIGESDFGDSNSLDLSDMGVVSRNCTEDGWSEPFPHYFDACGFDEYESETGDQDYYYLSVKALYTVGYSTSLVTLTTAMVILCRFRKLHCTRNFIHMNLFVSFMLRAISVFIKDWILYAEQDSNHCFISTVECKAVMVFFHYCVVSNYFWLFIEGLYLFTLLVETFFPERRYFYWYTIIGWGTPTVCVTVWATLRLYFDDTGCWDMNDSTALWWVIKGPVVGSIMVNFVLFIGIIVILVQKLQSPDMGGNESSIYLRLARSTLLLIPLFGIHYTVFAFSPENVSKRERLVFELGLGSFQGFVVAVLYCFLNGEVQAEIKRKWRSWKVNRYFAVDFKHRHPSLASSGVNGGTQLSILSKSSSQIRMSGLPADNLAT

The next assay deals with T6, UTR2 (UniProt Q9UKP6 1-389).
T6 sequence (looked up): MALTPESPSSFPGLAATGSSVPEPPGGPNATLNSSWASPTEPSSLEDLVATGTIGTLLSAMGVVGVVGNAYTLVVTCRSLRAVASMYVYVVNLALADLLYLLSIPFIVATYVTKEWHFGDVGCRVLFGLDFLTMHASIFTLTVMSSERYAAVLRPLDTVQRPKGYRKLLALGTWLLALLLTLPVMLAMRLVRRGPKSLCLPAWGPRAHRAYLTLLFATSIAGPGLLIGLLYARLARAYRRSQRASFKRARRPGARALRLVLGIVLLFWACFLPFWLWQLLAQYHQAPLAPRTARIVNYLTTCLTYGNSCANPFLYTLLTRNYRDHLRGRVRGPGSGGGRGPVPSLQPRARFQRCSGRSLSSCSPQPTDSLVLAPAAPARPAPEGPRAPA

Where no end group is shown, it is not given here.

Chain of TACR1 (P25103 whole entry): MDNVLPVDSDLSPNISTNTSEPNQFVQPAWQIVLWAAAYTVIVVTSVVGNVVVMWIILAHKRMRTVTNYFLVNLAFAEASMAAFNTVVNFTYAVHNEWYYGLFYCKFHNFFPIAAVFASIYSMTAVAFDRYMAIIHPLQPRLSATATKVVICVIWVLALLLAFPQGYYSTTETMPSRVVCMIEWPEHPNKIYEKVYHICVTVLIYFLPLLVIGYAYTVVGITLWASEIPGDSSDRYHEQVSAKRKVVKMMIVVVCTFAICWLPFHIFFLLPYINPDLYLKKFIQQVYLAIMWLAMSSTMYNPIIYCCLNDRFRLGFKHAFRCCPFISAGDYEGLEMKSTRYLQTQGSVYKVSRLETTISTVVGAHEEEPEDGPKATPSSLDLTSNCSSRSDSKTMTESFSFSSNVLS
Chain of MC3R (P41968 whole entry): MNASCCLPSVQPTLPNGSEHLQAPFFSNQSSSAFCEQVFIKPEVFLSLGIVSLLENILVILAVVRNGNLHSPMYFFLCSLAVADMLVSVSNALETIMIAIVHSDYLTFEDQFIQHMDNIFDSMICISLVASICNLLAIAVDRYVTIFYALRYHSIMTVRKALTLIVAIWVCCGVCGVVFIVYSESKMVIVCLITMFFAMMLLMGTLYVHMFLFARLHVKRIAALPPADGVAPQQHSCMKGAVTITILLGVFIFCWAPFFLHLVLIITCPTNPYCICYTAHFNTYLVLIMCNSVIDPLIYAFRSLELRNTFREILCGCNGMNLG
Chain of EDG1 (P21453 whole entry): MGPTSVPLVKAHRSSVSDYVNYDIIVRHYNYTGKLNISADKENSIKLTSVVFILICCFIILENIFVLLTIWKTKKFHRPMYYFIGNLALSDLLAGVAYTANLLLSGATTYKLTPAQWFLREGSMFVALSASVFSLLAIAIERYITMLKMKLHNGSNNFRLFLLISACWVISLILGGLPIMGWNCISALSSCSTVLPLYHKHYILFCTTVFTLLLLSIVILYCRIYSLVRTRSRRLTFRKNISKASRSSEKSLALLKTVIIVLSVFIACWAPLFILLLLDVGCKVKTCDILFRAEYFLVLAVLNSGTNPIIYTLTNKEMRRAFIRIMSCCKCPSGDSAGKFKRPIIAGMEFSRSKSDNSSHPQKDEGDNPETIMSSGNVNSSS
Chain of DRD5 (P21918 whole entry): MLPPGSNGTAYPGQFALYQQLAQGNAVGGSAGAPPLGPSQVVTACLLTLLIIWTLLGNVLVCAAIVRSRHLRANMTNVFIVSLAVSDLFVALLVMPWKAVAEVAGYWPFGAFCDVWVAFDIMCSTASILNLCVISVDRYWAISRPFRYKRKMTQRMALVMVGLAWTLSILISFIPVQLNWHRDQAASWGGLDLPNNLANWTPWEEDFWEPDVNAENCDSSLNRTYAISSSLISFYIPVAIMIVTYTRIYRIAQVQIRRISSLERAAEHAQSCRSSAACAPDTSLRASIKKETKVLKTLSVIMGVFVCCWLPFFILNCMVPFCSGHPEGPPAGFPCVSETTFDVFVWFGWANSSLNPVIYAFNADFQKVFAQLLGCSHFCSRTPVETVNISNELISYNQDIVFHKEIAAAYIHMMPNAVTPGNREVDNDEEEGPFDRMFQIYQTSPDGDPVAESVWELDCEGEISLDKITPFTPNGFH
Chain of HRH4 (Q9H3N8 whole entry): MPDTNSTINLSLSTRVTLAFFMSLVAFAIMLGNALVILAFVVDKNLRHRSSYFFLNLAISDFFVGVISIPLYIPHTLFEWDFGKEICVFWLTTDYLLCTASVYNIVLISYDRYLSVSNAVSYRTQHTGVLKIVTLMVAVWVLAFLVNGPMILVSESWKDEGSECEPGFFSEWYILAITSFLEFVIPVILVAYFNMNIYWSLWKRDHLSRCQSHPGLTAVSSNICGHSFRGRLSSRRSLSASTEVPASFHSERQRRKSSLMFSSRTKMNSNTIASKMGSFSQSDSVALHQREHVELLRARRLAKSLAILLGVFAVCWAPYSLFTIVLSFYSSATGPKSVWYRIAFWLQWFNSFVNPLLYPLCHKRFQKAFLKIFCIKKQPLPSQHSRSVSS
Chain of SCTR (P47872 23-440 limits assumed): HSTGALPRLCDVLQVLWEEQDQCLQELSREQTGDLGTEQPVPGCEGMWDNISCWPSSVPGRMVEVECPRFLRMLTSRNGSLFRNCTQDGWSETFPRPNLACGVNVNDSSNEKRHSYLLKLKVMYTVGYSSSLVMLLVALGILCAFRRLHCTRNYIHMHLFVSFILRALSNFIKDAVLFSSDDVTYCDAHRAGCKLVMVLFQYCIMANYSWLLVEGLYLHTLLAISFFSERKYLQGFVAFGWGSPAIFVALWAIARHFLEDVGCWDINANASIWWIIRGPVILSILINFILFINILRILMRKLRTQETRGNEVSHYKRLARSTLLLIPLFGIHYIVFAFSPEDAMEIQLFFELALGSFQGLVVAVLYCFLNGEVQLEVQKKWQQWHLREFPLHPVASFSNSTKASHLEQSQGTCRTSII
Chain of CALCR-RAMP2 (P30988 25-474 limits assumed, chain 1 of 2): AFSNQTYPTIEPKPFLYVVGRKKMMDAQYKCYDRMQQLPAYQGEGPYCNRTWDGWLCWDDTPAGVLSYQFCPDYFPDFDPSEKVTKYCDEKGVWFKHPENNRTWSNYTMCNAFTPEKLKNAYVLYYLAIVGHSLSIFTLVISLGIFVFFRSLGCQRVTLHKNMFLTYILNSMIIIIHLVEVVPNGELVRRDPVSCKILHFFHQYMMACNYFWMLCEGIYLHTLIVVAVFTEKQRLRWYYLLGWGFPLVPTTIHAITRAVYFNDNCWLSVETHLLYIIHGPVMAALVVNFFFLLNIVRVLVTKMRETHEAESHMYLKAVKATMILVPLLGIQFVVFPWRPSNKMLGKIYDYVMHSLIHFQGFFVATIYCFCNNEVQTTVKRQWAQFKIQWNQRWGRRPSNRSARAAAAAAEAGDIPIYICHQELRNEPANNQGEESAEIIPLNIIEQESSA
Chain of CALCR-RAMP2 (O60895 43-175 limits assumed, chain 2 of 2): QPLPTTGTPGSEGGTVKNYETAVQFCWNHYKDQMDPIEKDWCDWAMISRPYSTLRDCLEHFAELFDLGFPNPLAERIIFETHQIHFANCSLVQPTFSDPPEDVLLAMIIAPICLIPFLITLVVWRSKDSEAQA
Chain of CNR1 (P21554 whole entry): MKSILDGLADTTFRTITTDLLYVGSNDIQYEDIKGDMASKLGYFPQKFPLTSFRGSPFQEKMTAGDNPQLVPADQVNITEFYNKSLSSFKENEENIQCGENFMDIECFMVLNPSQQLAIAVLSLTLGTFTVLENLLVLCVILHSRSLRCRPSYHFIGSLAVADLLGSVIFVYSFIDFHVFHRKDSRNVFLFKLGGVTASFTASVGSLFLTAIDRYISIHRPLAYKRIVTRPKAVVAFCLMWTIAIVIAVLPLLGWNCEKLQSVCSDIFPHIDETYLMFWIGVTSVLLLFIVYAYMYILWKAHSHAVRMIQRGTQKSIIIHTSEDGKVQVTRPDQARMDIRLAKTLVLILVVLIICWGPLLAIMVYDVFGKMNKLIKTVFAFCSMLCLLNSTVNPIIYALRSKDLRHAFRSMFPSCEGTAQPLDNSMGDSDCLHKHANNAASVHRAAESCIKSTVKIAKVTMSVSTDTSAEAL

On to QATVGDVNTDRPGLLDLK (also: synthesised on Rink amide resin, C-terminal amide not given here outright) [octadecaneuropeptide (ODN)], for which the “% Activity, arrestin, antagonist mode, 2.5 uM” value (“% Activity, arrestin” for short) in the assay with P2RY11 was -5.6%; with MC3R it was -2.1%; in the assay with CCR6 it was -14.8%; with AGTR1 it was -8.5%; with TACR1 it was -17.6%; with CALCR-RAMP2, -17.8%. In addition, the “% Activity, arrestin” value with GALR2 is -29.7%; with SCTR it was 7.7%; with CNR1, -37.5%; with HRH4, 5.2%; with ADCYAP1R1, 0.9%; with DRD5 it was 4.2%. Further, the “% Activity, arrestin” value with UTR2 is -27.2%; with EDG1, -25.9%.
